Measurements from publication PMC7367873, “Dissecting the sequence determinants for dephosphorylation by the catalytic subunits of phosphatases PP1 and PP2A” (Nature Communications, 2020).

Legend:
[1] = system: GFP-14-3-3β and its binding proteins; assay: GFP-14-3-3β co-IP with LC-MS/MS label-free quantification, untreated versus PP1c-treated; parameters: species or system human; conditions: pairwise comparison PP1 vs untreated
GFP-14-3-3β = GFP-14-3-3β co-IP with LC-MS/MS, untreated GFP-14-3-3β versus GFP control (14-3-3 interactome); type: binding, human; conditions: pairwise comparison untreated vs GFP
[2] = log2 difference, label-free quantification, 3 replicates each

Molecule | Difference (log2), PP1 vs untreated [1] | Difference (log2), PP1 vs untreated [1, 2] | Difference (log2), untreated vs GFP (GFP-14-3-3β) | Difference (log2), untreated vs GFP (GFP-14-3-3β; [2])
RARS (protein, UniProt P54136 1-660, looked up) Arginine--tRNA ligase, …: MDVLVSECSARLLQQEEEIKSLTAEIDRLKNCGCLGASPNLEQLQEENLKLKYRLNILRKSLQAERNKPTKNMINIISRLQEVFGHAIKAAYPDLENPPLLVTPSQQAKFGDYQCNSAMGISQMLKTKEQKVNPREIAENITKHLPDNECIEKVEIAGPGFINVHLRKDFVSEQLTSLLVNGVQLPALGENKKVIVDFSSPNIAKEMHVGHLRSTIIGESISRLFEFAGYDVLRLNHVGDWGTQFGMLIAHLQDKFPDYLTVSPPIGDLQVFYKESKKRFDTEEEFKKRAYQCVVLLQGKNPDITKAWKLICDVSRQELNKIYDALDVSLIERGESFYQDRMNDIVKEFEDRGFVQVDDGRKIVFVPGCSIPLTIVKSDGGYTYDTSDLAAIKQRLFEEKADMIIYVVDNGQSVHFQTIFAAAQMIGWYDPKVTRVFHAGFGVVLGEDKKKFKTRSGETVRLMDLLGEGLKRSMDKLKEKERDKVLTAEELNAAQTSVAYGCIKYADLSHNRLNDYIFSFDKMLDDRGNTAAYLLYAFTRIRSIARLANIDEEMLQKAARETKILLDHEKEWKLGRCILRFPEILQKILDDLFLHTLCDYIYELATAFTEFYDSCYCVEKDRQTGKILKVNMWRMLLCEAVAAVMAKGFDILGIKPVQRM | 0.2613 log2 | – | -0.5854 log2 | –
UPF1 (protein, UniProt Q92900 1-1129, looked up) Regulator of nonsense …: MSVEAYGPSSQTLTFLDTEEAELLGADTQGSEFEFTDFTLPSQTQTPPGGPGGPGGGGAGGPGGAGAGAAAGQLDAQVGPEGILQNGAVDDSVAKTSQLLAELNFEEDEEDTYYTKDLPIHACSYCGIHDPACVVYCNTSKKWFCNGRGNTSGSHIVNHLVRAKCKEVTLHKDGPLGETVLECYNCGCRNVFLLGFIPAKADSVVVLLCRQPCASQSSLKDINWDSSQWQPLIQDRCFLSWLVKIPSEQEQLRARQITAQQINKLEELWKENPSATLEDLEKPGVDEEPQHVLLRYEDAYQYQNIFGPLVKLEADYDKKLKESQTQDNITVRWDLGLNKKRIAYFTLPKTDSGNEDLVIIWLRDMRLMQGDEICLRYKGDLAPLWKGIGHVIKVPDNYGDEIAIELRSSVGAPVEVTHNFQVDFVWKSTSFDRMQSALKTFAVDETSVSGYIYHKLLGHEVEDVIIKCQLPKRFTAQGLPDLNHSQVYAVKTVLQRPLSLIQGPPGTGKTVTSATIVYHLARQGNGPVLVCAPSNIAVDQLTEKIHQTGLKVVRLCAKSREAIDSPVSFLALHNQIRNMDSMPELQKLQQLKDETGELSSADEKRYRALKRTAERELLMNADVICCTCVGAGDPRLAKMQFRSILIDESTQATEPECMVPVVLGAKQLILVGDHCQLGPVVMCKKAAKAGLSQSLFERLVVLGIRPIRLQVQYRMHPALSAFPSNIFYEGSLQNGVTAADRVKKGFDFQWPQPDKPMFFYVTQGQEEIASSGTSYLNRTEAANVEKITTKLLKAGAKPDQIGIITPYEGQRSYLVQYMQFSGSLHTKLYQEVEIASVDAFQGREKDFIILSCVRANEHQGIGFLNDPRRLNVALTRARYGVIIVGNPKALSKQPLWNHLLNYYKEQKVLVEGPLNNLRESLMQFSKPRKLVNTINPGARFMTTAMYDAREAIIPGSVYDRSSQGRPSSMYFQTHDQIGMISAGPSHVAAMNIPIPFNLVMPPMPPPGYFGQANGPAAGRGTPKGKTGRGGRQKNRFGLPGPSQTNLPNSQASQDVASQPFSQGALTQGYISMSQPSQMSQPGLSQPELSQDSYLGDEFKSQIDVALSQDSTYQGERAYQHGGVTGLSQY | 0.3073 log2 | – | 0.2927 log2 | –
PLEKHA7 (protein, UniProt Q6IQ23 1-1121, looked up) Pleckstrin homology …: MAAATVGRDTLPEHWSYGVCRDGRVFFINDQLRCTTWLHPRTGEPVNSGHMIRSDLPRGWEEGFTEEGASYFIDHNQQTTAFRHPVTGQFSPENSEFILQEEPNPHMSKQDRNQRPSSMVSETSTAGTASTLEAKPGPKIIKSSSKVHSFGKRDQAIRRNPNVPVVVRGWLHKQDSSGMRLWKRRWFVLADYCLFYYKDSREEAVLGSIPLPSYVISPVAPEDRISRKYSFKAVHTGMRALIYNSSTAGSQAEQSGMRTYYFSADTQEDMNAWVRAMNQAAQVLSRSSLKRDMEKVERQAVPQANHTESCHECGRVGPGHTRDCPHRGHDDIVNFERQEQEGEQYRSQRDPLEGKRDRSKARSPYSPAEEDALFMDLPTGPRGQQAQPQRAEKNGMLPASYGPGEQNGTGGYQRAFPPRTNPEKHSQRKSNLAQVEHWARAQKGDSRSLPLDQTLPRQGPGQSLSFPENYQTLPKSTRHPSGGSSPPPRNLPSDYKYAQDRASHLKMSSEERRAHRDGTVWQLYEWQQRQQFRHGSPTAPICLGSPEFTDQGRSRSMLEVPRSISVPPSPSDIPPPGPPRVFPPRRPHTPAERVTVKPPDQRRSVDISLGDSPRRARGHAVKNSSHVDRRSMPSMGYMTHTVSAPSLHGKSADDTYLQLKKDLEYLDLKMTGRDLLKDRSLKPVKIAESDTDVKLSIFCEQDRVLQDLEDKIRALKENKDQLESVLEVLHRQMEQYRDQPQHLEKIAYQQKLLQEDLVHIRAELSRESTEMENAWNEYLKLENDVEQLKQTLQEQHRRAFFFQEKSQIQKDLWRIEDVTAGLSANKENFRILVESVKNPERKTVPLFPHPPVPSLSTSESKPPPQPSPPTSPVRTPLEVRLFPQLQTYVPYRPHPPQLRKVTSPLQSPTKAKPKVEDEAPPRPPLPELYSPEDQPPAVPPLPREATIIRHTSVRGLKRQSDERKRDRELGQCVNGDSRVELRSYVSEPELATLSGDMAQPSLGLVGPESRYQTLPGRGLSGSTSRLQQSSTIAPYVTLRRGLNAESSKATFPRPKSALERLYSGDHQRGKMSAEEQLERMKRHQKALVRERKRTLGQGERTGLPSSRYLSRPLPGDLGSVC | 0.2527 log2 | – | 1.203 log2 | –
ATP5O (protein, UniProt P48047 24-213, looked up) ATP synthase peripheral stalk …: FAKLVRPPVQVYGIEGRYATALYSAASKQNKLEQVEKELLRVAQILKEPKVAASVLNPYVKRSIKVKSLNDITAKERFSPLTTNLINLLAENGRLSNTQGVVSAFSTMMSVHRGEVPCTVTSASPLEEATLSELKTVLKSFLSQGQVLKLEAKTDPSILGGMIVRIGEKYVDMSVKTKIQKLGRAMREIV | 0.2696 log2 | – | 0.8888 log2 | –
ACADM (protein, UniProt P11310 26-421, looked up) Medium-chain specific …: KANRQREPGLGFSFEFTEQQKEFQATARKFAREEIIPVAAEYDKTGEYPVPLIRRAWELGLMNTHIPENCGGLGLGTFDACLISEELAYGCTGVQTAIEGNSLGQMPIIIAGNDQQKKKYLGRMTEEPLMCAYCVTEPGAGSDVAGIKTKAEKKGDEYIINGQKMWITNGGKANWYFLLARSDPDPKAPANKAFTGFIVEADTPGIQIGRKELNMGQRCSDTRGIVFEDVKVPKENVLIGDGAGFKVAMGAFDKTRPVVAAGAVGLAQRALDEATKYALERKTFGKLLVEHQAISFMLAEMAMKVELARMSYQRAAWEVDSGRRNTYYASIAKAFAGDIANQLATDAVQILGGNGFNTEYPVEKLMRDAKIYQIYEGTSQIQRLIVAREHIDKYKN | – | 2.074 | – | -2.884

The next lines start with results.

Difference (log2), PP1 vs untreated [1] | Difference (log2), PP1 vs untreated [1, 2] | Molecule | Difference (log2), untreated vs GFP (GFP-14-3-3β) | Difference (log2), untreated vs GFP (GFP-14-3-3β; [2])
0.2597 log2 | – | ACSL3 (protein, UniProt O95573 1-720, looked up) Fatty acid CoA ligase Acsl3: MNNHVSSKPSTMKLKHTINPILLYFIHFLISLYTILTYIPFYFFSESRQEKSNRIKAKPVNSKPDSAYRSVNSLDGLASVLYPGCDTLDKVFTYAKNKFKNKRLLGTREVLNEEDEVQPNGKIFKKVILGQYNWLSYEDVFVRAFNFGNGLQMLGQKPKTNIAIFCETRAEWMIAAQACFMYNFQLVTLYATLGGPAIVHALNETEVTNIITSKELLQTKLKDIVSLVPRLRHIITVDGKPPTWSEFPKGIIVHTMAAVEALGAKASMENQPHSKPLPSDIAVIMYTSGSTGLPKGVMISHSNIIAGITGMAERIPELGEEDVYIGYLPLAHVLELSAELVCLSHGCRIGYSSPQTLADQSSKIKKGSKGDTSMLKPTLMAAVPEIMDRIYKNVMNKVSEMSSFQRNLFILAYNYKMEQISKGRNTPLCDSFVFRKVRSLLGGNIRLLLCGGAPLSATTQRFMNICFCCPVGQGYGLTESAGAGTISEVWDYNTGRVGAPLVCCEIKLKNWEEGGYFNTDKPHPRGEILIGGQSVTMGYYKNEAKTKADFFEDENGQRWLCTGDIGEFEPDGCLKIIDRKKDLVKLQAGEYVSLGKVEAALKNLPLVDNICAYANSYHSYVIGFVVPNQKELTELARKKGLKGTWEELCNSCEMENEVLKVLSEAAISASLEKFEIPVKIRLSPEPWTPETGLVTDAFKLKRKELKTHYQADIERMYGRK | 0.1591 log2 | –
0.2489 log2 | – | LRRC59 (protein, UniProt Q96AG4 1-307, looked up) Leucine-rich …: MTKAGSKGGNLRDKLDGNELDLSLSDLNEVPVKELAALPKATILDLSCNKLTTLPSDFCGLTHLVKLDLSKNKLQQLPADFGRLVNLQHLDLLNNKLVTLPVSFAQLKNLKWLDLKDNPLDPVLAKVAGDCLDEKQCKQCANKVLQHMKAVQADQERERQRRLEVEREAEKKREAKQRAKEAQERELRKREKAEEKERRRKEYDALKAAKREQEKKPKKEANQAPKSKSGSRPRKPPPRKHTRSWAVLKLLLLLLLFGVAGGLVACRVTELQQQPLCTSVNTIYDNAVQGLRRHEILQWVLQTDSQQ | 0.4854 log2 | –
0.2864 log2 | – | MSN (protein, UniProt P26038 2-577, looked up) Moesin: PKTISVRVTTMDAELEFAIQPNTTGKQLFDQVVKTIGLREVWFFGLQYQDTKGFSTWLKLNKKVTAQDVRKESPLLFKFRAKFYPEDVSEELIQDITQRLFFLQVKEGILNDDIYCPPETAVLLASYAVQSKYGDFNKEVHKSGYLAGDKLLPQRVLEQHKLNKDQWEERIQVWHEEHRGMLREDAVLEYLKIAQDLEMYGVNYFSIKNKKGSELWLGVDALGLNIYEQNDRLTPKIGFPWSEIRNISFNDKKFVIKPIDKKAPDFVFYAPRLRINKRILALCMGNHELYMRRRKPDTIEVQQMKAQAREEKHQKQMERAMLENEKKKREMAEKEKEKIEREKEELMERLKQIEEQTKKAQQELEEQTRRALELEQERKRAQSEAEKLAKERQEAEEAKEALLQASRDQKKTQEQLALEMAELTARISQLEMARQKKESEAVEWQQKAQMVQEDLEKTRAELKTAMSTPHVAEPAENEQDEQDENGAEASADLRADAMAKDRSEEERTTEAEKNERVQKHLKALTSELANARDESKKTANDMIHAENMRLGRDKYKTLRQIRQGNTKQRIDEFESM | 0.7577 log2 | –
